What is called EC50 is the concentration at which the effect is half-maximal.

8 molecules from patent US20240409629A1 (CHIA TAI TIANQING PHARMACEUTICAL GROUP, published 2024) can be followed below.

The chains are these.
B1: 15F9 (antibody, human IgG1, kappa, V domains shown)
VH: QVQLVQSGSELKKPGASVKVSCKASGYTFTNYGINWVRQAPGQGLEWMGWINPNTGETTYAEEFKGRFVFSLDTSVSTAYLQISSLKAEDTAVYFCARLYYGNRFDSWGQGTLVTVSS
VL: DIVMTQSPDSLAVSLGERATINCKSSQSLLNSGNQRNYLTWYQQKPGQPPKLLIYWASTRESGVPDRFSGSGSGTDFTLTISSLQAEDVAVYYCQNAYYYPLTFGGGTKVEIKR
B2: humanized antibody hz28G3-1.1 (antibody, human IgG1, kappa, V domains shown)
VH: QVQLVQSGAEVKKPGASVKVSCKTSGYSFTDYLMLWVRQAPGQGLEWMGNINPYYGRTTYALKFKGRVTMTVDRSTSTVYMELSSLRSEDTAVYYCARDGYSLRNAMDYWGQGTLVTVSS
VL: B1 VL with L30F, R36K, T40A, W56G, Y98H, Y99S, L102Y, G106Q
B3: humanized antibody hz28G3-2.2 (antibody, human IgG1, kappa, V domains shown)
VH: B2 VH with T24A, S28T, T59Y, K65Q
VL: B1 VL with D9Y, L30F, R36K, T40A, W56G, S69T, Y98H, Y99S, L102Y, G106Q
B4: humanized antibody hz28G3-2.4 (antibody, human IgG1, kappa, V domains shown)
VH: B2 VH with T24A, S28T, P41H, G44S, T59Y, K65Q
VL: B1 VL with D9Y, L30F, R36K, T40A, W56G, S69T, Y98H, Y99S, L102Y, G106Q
B5: humanized antibody hz28G3-2.3 (antibody, human IgG1, kappa, V domains shown)
VH: B2 VH with P41H, G44S
VL: B1 VL with D9Y, L30F, R36K, T40A, W56G, S69T, Y98H, Y99S, L102Y, G106Q
B6: humanized antibody hz28G3-1.2 (antibody, human IgG1, kappa, V domains shown)
VH: B2 VH with T24A, S28T, T59Y, K65Q
VL: B1 VL with L30F, R36K, T40A, W56G, Y98H, Y99S, L102Y, G106Q
B7: humanized antibody hz28G3-2.1 (antibody, human IgG1, kappa, V domains shown)
VH: B2 VH
VL: B1 VL with D9Y, L30F, R36K, T40A, W56G, S69T, Y98H, Y99S, L102Y, G106Q
B8: humanized antibody hz28G3-1.4 (antibody, human IgG1, kappa, V domains shown)
VH: B2 VH with T24A, S28T, P41H, G44S, T59Y, K65Q
VL: B1 VL with L30F, R36K, T40A, W56G, Y98H, Y99S, L102Y, G106Q

Substitutions are numbered along the chain they refer to.

The target in the first assay is human CLDN18.2 (human). The experiment in a line: cell-based or functional assay.
For the molecule B1, the “ADCC EC50, PBMC effector cells, KATOIII target cells” value is roughly 0.0155 nM and the “ADCC Maximum killing (%), PBMC effector cells, KATOIII target cells” value stood at 19.5%.

A further assay deals with human CLDN18.2 (human). The experiment in a line: cell-based or functional assay. The source holds these as a separate data set.
For B2, the “ADCC EC50, Jurkat-CD16a v158-NFAT-luciferase effector cells, KATOIII target cells” value was 0.139 nM and the “ADCC EC50, Jurkat-CD16a v158-NFAT-luciferase effector cells, U2OS-CLDN18.2 target cells” value (“ADCC EC50 … U2OS-CLDN18.2 target cells” below) was determined as 0.016 nM.
Regarding B3, the “ADCC EC50, Jurkat-CD16a v158-NFAT-luciferase effector cells, KATOIII target cells” value came to 0.861 nM and the “ADCC EC50 … U2OS-CLDN18.2 target cells” value was 0.017 nM.
In the case of B4, the “ADCC EC50, Jurkat-CD16a v158-NFAT-luciferase effector cells, KATOIII target cells” value turned out to be 0.275 nM and the “ADCC EC50 … U2OS-CLDN18.2 target cells” value is 0.017 nM.
For B5, the “ADCC EC50, Jurkat-CD16a v158-NFAT-luciferase effector cells, KATOIII target cells” value is 0.209 nM and the “ADCC EC50 … U2OS-CLDN18.2 target cells” value is 0.019 nM.
Turning to B6, the “ADCC EC50, Jurkat-CD16a v158-NFAT-luciferase effector cells, KATOIII target cells” value worked out at 0.396 nM and the “ADCC EC50 … U2OS-CLDN18.2 target cells” value came to 0.015 nM.
Regarding B7, the “ADCC EC50, Jurkat-CD16a v158-NFAT-luciferase effector cells, KATOIII target cells” value amounted to 0.184 nM and the “ADCC EC50 … U2OS-CLDN18.2 target cells” value amounted to 0.019 nM.
Regarding B8, the “ADCC EC50, Jurkat-CD16a v158-NFAT-luciferase effector cells, KATOIII target cells” value turned out to be 0.184 nM and the “ADCC EC50 … U2OS-CLDN18.2 target cells” value stood at 0.017 nM.

A further assay concerns the target human CLDN18.2 (human). The experiment in a line: cell-based or functional assay. This is another data set of the same source.
B2: the “ADCC EC50, PBMC effector cells, KATOIII target cells” value turned out to be 0.048 nM; the “ADCC EC50, PBMC effector cells, NIH-3T3-CLDN18.2 target cells” value is 0.33 nM; the “ADCC EC50, PBMC effector cells, NUGC-4 target cells” value is 0.07 nM; the “ADCC Maximum killing (%), PBMC effector cells, KATOIII target cells” value was 11.5%. Also, the “ADCC Maximum killing (%), PBMC effector cells, NIH-3T3-CLDN18.2 target cells” value was 28.1% and the “ADCC Maximum killing (%), PBMC effector cells, NUGC-4 target cells” value came out at 4.9%.
In the case of B1, the “ADCC EC50, PBMC effector cells, KATOIII target cells” value was determined as 0.03 nM; the “ADCC EC50, PBMC effector cells, NIH-3T3-CLDN18.2 target cells” value turned out to be 0.18 nM; the “ADCC EC50, PBMC effector cells, NUGC-4 target cells” value turned out to be 0.3 nM; the “ADCC Maximum killing (%), PBMC effector cells, KATOIII target cells” value was 10.6%. Also, the “ADCC Maximum killing (%), PBMC effector cells, NIH-3T3-CLDN18.2 target cells” value was 22.6% and the “ADCC Maximum killing (%), PBMC effector cells, NUGC-4 target cells” value was 4.34%.

The target in another assay is human CLDN18.2 (human). The experiment in a line: cell-based or functional assay. This is another data set of the same source.
For B2, the “CDC EC50, NIH-3T3-CLDN18.2 target cells” value worked out at 0.29 nM.
As to B1, the “CDC EC50, NIH-3T3-CLDN18.2 target cells” value was determined as 0.25 nM.

The target in a further assay is T1, human CLDN18.2 (human).
T1 construct: also called claudin18.2
The experiment in a line: FACS, NUGC-4 cells (natural CLDN18.2). Here is the method:
(§1) Based on the FACS method, the binding activity of anti-CLDN18.2 humanized antibodies for the cell lines KATOIII (Cell Bank of the Chinese Academy of Sciences) and NUGC-4 (Cell Bank of the Chinese Academy of Sciences) naturally expressing CLDN18.2 was analyzed. […] See Example 3 for the specific method.
A general note: In flow cytometry, cells or beads pass a laser one at a time.
Molecule B2 returned an EC50 of 11.1 nM.
On to B3, for which the midpoint of the response, the EC50, lay at 12.4 nM.
Molecule B4 came in with an EC50 of 14.2 nM.
On the same count and under the same terms, the figure for B5 is 11.9 nM.
The same measure, in the same setting: the figure for B6 is 14.1 nM.
Take B7: the EC50 came out at 12.1 nM.
In the case of B8, the EC50 was 14 nM.

The target of another assay is T1, human CLDN18.2. The experiment in a line: FACS, KATOIII cells (natural CLDN18.2). Here is the method:
as §1
Turning to B2, the EC50 is 8.11 nM.
On the same count and under the same terms, the figure for B3 is 5.92 nM.
As to B4, the EC50 was found to be 5.62 nM.
B5 had an EC50 of 6.54 nM.
Still for that read-out and setting: the figure for B6 is 5.84 nM.
Regarding B7, a half-maximal effect (EC50) was put at 7.25 nM.
B8: the EC50 turned out to be 5.83 nM.
